# According to a protein production outcome set (Wang et al. 2014):
# Assay: label from the status in PepcDB records
# 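Further: failed if final PepcDB status was selected cloned or expressed and not failed if soluble or beyond.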
row,Sequence,protein production
1,MKIRPFLVALGLTTFAGAAHGANFEDLTQLLSTKKCPLCDLRGAGLVMVNLTRADLTGADLSGANLSGADLTGANLSGANLTSASLNGANLSGANLNGAITDGTDFREAYFDRATFINTNLETAYMQGAKAVPNTAGTPQLFYGWGLLETSKGNYQSALNHYDQALALDPEFAPGYLGRGLTLLKIGNEASAKQNVEYAQLLFEENQDEVGVKTSEQFLEDLANMQEARRQGAGNPQLDAIVRGVASMAFKYLLPLVGL,failed
2,MKISAIKTWLPLLIIIVLLGLFLGLGLNKYVSFASLRDNHEWLIAITKSHFYLVSFVFIIIYTVAVALSIPGAIFLTLIGGFLFGILWGTFLVVLSATLGATILFFAVQSSLGEVFSKRASGWVKRMRSGFKDNAFSYLLTLRLIPLFPFWVINIVSAVLGVSASTFIIATFIGIIPGSIVYVSVGNGLGELFAASLQPNLGIIFEPKFILPLLGLAALSLIPVFYKKKGKQGTEKMKDKDLFCDLAIIGGGSAGLSIAAGCSQLGLQVVLVEPNKMGGDCLNYGCIPSKTLLNTAKIFYQTKHSTVLGIQAKSVKIDFLQVMQQVHNVIACIAKNDSVERFTSLGVQVIQEAGHFIGPKQFKLKRKIIRAKHFVIATGSSPAIPPIQNLNKVSYLTNETIFNLKVQPEHLIVIGGGPIGCELAQAFAMLGSKVTILEAFTILPKDDADCVAIIRSQLESMQIALYEQIKINKIEESADKTISVHLENQDNPITITGSHLLVSTGRVANVDGLGLEKAGVQYTTRGINTNARLQTTNKKIYAIGDVTGPYQFTHMASYQAGIALRNIAFKWPAKVDYKAVPWVTYTEPELAHVGLLASEALKDPTLKITEFAFAEVDRAQAENKVNGKIKIITGKKAKILGVSIVGAHAGELILPWVIAVKERKSLRTFTDAIAAYPTFSEISKRVAGEYYKPFIFSSKIRTFVRWLNKLG,failed
3,MKISELGYDRAFLQLFDGNDFQLYDHQRMAIEQIRKGRNVVVSVPTAAGKTLIAYSAIYETFQRNLKSIYIVPLRSLAMEKFSELSRLRDLGLKVKMSIGDYDDSPDFIKRYDAVILTSEKADSLLHHDPYILNDVGLLVLDEIHTIGDESRGPTLETVASIARYVNPDVRILALSATVSNAMELASWLDASLIKSDFRPVPLKTGILYRDQLYLDGKRRSGVSINQIIRETVEDNGQVLMFVSSRKKAEDTARDLAQIFGSDANIKISSDETNVYDDMLNEILPRGVAFHHAGLSNDQRAFIEREFRARRIKVIVATPTLAAGVNLPARLVIVRDITRWGSDGISYLTNMEIKQMIGRAGRPGYDQYGIGLIYVSSQSSYEAAKDYLSTDPEPVVSYLGNEAKVRFNTLAAISMGLARSPSDIMKFYETTLFFSQNGKDLLEEKISASLKFLEKNGFIKQSPDLRTTQLGKVTSDLYIDPESALRLVDFFDGPADVDHAIYYISLCREIVPFNIKDDYSAMEFLDDIGLIDGDIDAAKTAIVLRDWISEASYKYLYDKYGIAPGDMQARISMADWLSYSLAKLSSIYKPEVRRMLEILNLRIKEGIREDILQLVLIPGVGRVRARRLYDAGLRSIEDVASASPDRIKAIYGFSDTLANAIIRRARTIASKEVR,failed
4,MKITVFGATGNVGNRVITEALLRGHEITAVLRNNARANEFDSSVKVVIGHADNVDDVVKWSDGQDLIISATRPPQGLESQLVDTAKALLSGLAQTKVRLLLVGGAASLTVPNSNGMLVVDDTDLVPTAWRDIALACLAQHKLCQENESVDWSYISPPAVIVPGERTGIFRTGSDELLVDEQGQSTISLEDFAIALLDEAEVVKHKRKRFTVAYLEHHHHHH,failed
5,MKITWFGHACFALEMEGKTIVTDPFDESVGYPIPNVTADVVTESHQHFDHNAHHLVKGNFRVIDRPGAYTVNGVKIKGVETFHDPSHGRERGKNIVFVFEGEGIKVCHLGDLGHVLTPAQVEEIGEIDVLLVPVGGTYTIGPKEAKEVADLLNAKVIIPMHYKTKYLKFNLLPVDDFLKLFDSYERVGNILELFEKPKERKVVVMEVQ,not failed
6,MKIVAITSCPNGIAHTYMAQEKLEQVAKEMGVDIKVETQGGVGAENVLTTQDIEEADGVIIAADKQVDLSRFVGKRLINENVREGIHNPRGLIQRIINQDAPIY,not failed
7,MKKAAAYTFCFLLLSGVGIILFMDIHPAFGGIPTTEQKEAYRELDNYVDGNFVNDVPTRRAFVDPSDTTSTTNTSASEVKDRNPVSPIPVYVIDWNKINSENDSLTWFGHSAFLLNVDNKQLLIDPMLGPVVSPVSFVGRNRYEYSEDIMLHLIDEMPPIDAVLITHDHYDHLDYRSIVKLNNKVSHFFVPLGCSAHLIRWGIPEEKITELNWWEETEYQGLTVALTPSRHSSGRNPFNIDTTLWGGWVILGNKTRVYTSGDSGYGPHFKQIGDKYGPFDITLIEGAQYDRNWPDLHMVPEQAIQANLDVGGKTMMLMHWGAFTLANHAWNEPIERALKEAKIREVNIIAPMIGETVLLDSDLQTSPTSWWDF,failed
8,MKKAIQFGAGNIGRGFIGGLLVKSGYHVVFADVNEYILNSINKDKKYTIHIRDVECIDEVIDNISAVSSIKEEIIDEIVQAEIITTAVGPLVLTKIASTIAKGIKARKEKGLTSNLNIIACENAIYASSSLKEEVLKYLNKEEVEYLEMYVGFPNCSVDRIVPPGKNENPLDVTVENFYEWNVEKQGFKGEIPTIVGMNLADNLMAYIERKLFTLNTGHAITAYIGYLKGYKTIEESIKDKFICDIVKSAMVESGEGLIKKYNFDSEVHYKYIDKILNRFKNPYLNDDVLRVGREPLRKLSDKDRLIKPLMTAKSYGLSVDNLILGIGAALHYNNSEDTQSVELQELIKSIGVKKAVAKIANISNDEELLNNIEKSYIFMKNL,not failed
9,MKKAKSRIAILGTGGTIAGFIDSTIATTGYAAGAIDIDVLIKAVPQIRDLADISWEQIANIDSSNMCDEIWLRLAKKIAKLFAEGIDGVVITHGTDTMEETAYFLNLTIKSDKPVVLVGAMRPSTAISADGPKNLYNAVALVVNKEAKNKGVMVAINDKILSARGVVKTHSLNVDAFSSPDFGDLGYIVDGKVFFYNNVIKAHTKNAPFDVSKLTSLPKVDILYSYSNDGSGVAAKALFEHGTKGIVVAGSGAGSIHKNQKDVLKELLKKGLKVVVSSRVVAGCVAVSDSDEKLGFISAEDLNPQKARVLLMLALTKTSDPKKIQEYFLKY,not failed
10,MKKASFVYSENQLSYQFHSTHPFNHQRLRLTYDLLKSMDALDDSEIVAPRVATEAELRLIHDQAFIDAVKAAGNGTLSDGVALNYGLGTEDTPIFKNMHEAAALLVGGTLTAVDQVMEGHAEHACHLGGGLHHGFRGKASGFCVYNDSSIAIEYMRRKFGARVLYIDTDAHHGDGVQWAFYEEDDVCTLSIHETGRYLFPGTGNFNEKGQGEGYGYSINIPLDAFTEDDSFLFAYEQAVTNVVKFFKPDVILTQNGADAHFHDPLTHLCASMRTFRYIPQLAHALAHEYCEGRWIAVGGGGYDIWRVVPRAWAMIWLEMTDQLQKANGPLPERWLSKWTTYAQHPLPSHWEDENEELPTIPRRDEITEKNKKIVEKALYHIYTELKTQT,failed
11,MKKATIAATAGIAVTAFAAPTIASASTVVVEAGDTLWGIAQSKGTTVDAIKKANNLTTDKIVPGQKLQVNNEVAAAEKTEKSVSATWLNVRSGAGVDNSIITSIKGGTKVTVETTESNGWHKITYNDGKTGFVNGKYLTDKAVSTPVAPTQEVKKETTTQQAAPAAETKTEVKQTTQATTPAPKVAETKETPVVDQNATTHAVKSGDTIWALSVKYGVSVQDIMSWNNLSSSSIYVGQKLAIKQTANTATPKAEVKTEAPAAEKQAAPVVKENTNTNTATTEKKETATQQQTAPKAPTEAAKPAPAPSTNTNANKTNTNTNTNTNTNNTNTNTPSKNTNTNSNTNTNTNSNTNANQGSSNNNSNSSASAIIAEAQKHLGKAYSWGGNGPTTFDCSGYTKYVFAKAGISLPRTSGAQYASTTRISESQAKPGDLVFFDYGSGISHVGIYVGNGQMINAQDNGVKYDNIHGSGWGKYLVGFGRV,failed
12,MKKAVVVFSGGQDSTTCLVQALKEFDEVHAITFDYGQRHKLEIEVAQKIAKDLGVKAHKVMDVGLLNELAISSLTRDDIPVSHELQENGLPNSFVPGRNILFLTLAGIYAYQIGADTVITGVCETDFSGYPDCRDDFVKSMNTALVKGMDRALTIKTPLMWLNKAETWALADQYNALQLVRENTLTCYNGIIGDGCGDCPSCDLRKAGLDEYLNNKDAVMKSLVQKQESEGL,failed
13,MKKDSTIAFTGGRILTMDSEQKYAEAVVIRGDRIAAVGGTYILKSFPDAEIRDLKNRYLLPAFIDSHNHLSSFGCLEHHHHHH,not failed
14,MKKFQEMCQEEFEKIELMARGGQKIVFDGVHNSYGETVIKLYFQLNDPRSLREIQIERDLNLSMVPKIYETGTIEYEGTETLYIIEQKVKGTELRKVLESGKRFSLEEAVTFLEQGLEFIACIENKGIVHRDIKPENIIRADDGRIFFLDFGIARILGADSLTRTGAMMGPHTPGYAAPEQFNNLKKEIDSRADIFSLGVVTYECITGKNPFREGSINALEVLQKTETITPVQYSIKGDTQSQFMALLGAMMGKYPSRRPRTAKQAIDWLKVAKKTFVYE,failed
15,MKKFYFLILGIVLCGMVAQAQNSYEGHIGFGQHHVVRKGGELNVEVSLDLGAVKLAAQQMIVLTPVLRSTEGEEQQQLAPVVIAGPRRYRVLKRSLAFGTDNFEMSPMLVEKRKSGTPQTVNLHFGLPYHEWMRRAELILREEVTGCADCPVSQGDHTVITSVFDEQFTPRYELSYVTPPVEPLKQRSETHTAYLNFEVDKYVLLRNYKNNANVLADVDRIVNEIQNDSNLTVTEFRVTGYASPEGNYSRNMKLSENRALAFVGYLQNHGGVDESLLTVDWKGEDWSGLRREVAASSLIDKGAILAVIDGHTDFATRKNRLQALNGGTTYRMLLRDYYPPLRRNEYTISYVARAFNVDEAKQLIKTKPQYLSLNEMFLVANTYPKDSGEFKEVFDIAARIYPDDPVARLNTAALELENGAIDAAIVRLQKSDMPEAWNNLGIAYILKQDYKKGGEYLEKAIDAGIQAAAYNMGQLAAWLKTQE,failed
16,MKKGIFTALLFTVIVALYSLHLANGKCVYKSNISSLLLENIEALAADEDGSDDGEVVGGKIRCIDVGSLDCPLTHEKVKYIVRGYSL,failed
17,MKKGSLAIVLGSLLASGAFYTALADGMPAKQQHNNTGESVELHFHYPIKGKQEPKNSHLVVLIEPKIEINKVIPESYQKEFEKSLFLQLSSFLERKGYSVSQFKDASEIPQDIKEKALLVLRMDGNVAILEDIVEESDALSEEKVIDMSSGYLNLNFVEPKSEDIIHSFGIDVSKIKAVIERVELRRTNSGGFVPKTFVHRIKETDHDQAIRKIMNQAYHKVMVHITKELSKKHMEHYEKVSSEMKKRK,failed
18,MKKGVLIAFEGIDGSGKSSQATLLKDWIELKRDVYLTEWNSSDWIHDIIKEAKKKDLLTPLTFSLIHATDFSDRYERYILPMLKSGFIVISDRYIYTAYARDSVRGVDIDWVKKLYSFAIKPDITFYIRVSPDIALERIKKSKRKIKPQEAGADIFPGLSPEEGFLKYQGLITEVYDKLVKDENFIVIDGTKTPKEIQIQIRKFVGELIDNSF,not failed
19,MKKIAIFGSAFNPPSLGHKSVIESLSHFDLVLLEPSIAHAWGKNMLDYPIRCKLVDAFIKDMGLSNVQRSDLEQALYQPGQSVTTYALLEKIQEIYPTADITFVIGPDNFFKFAKFYKAEEITERWTVMACPEKVKIRSTDIRNALIEGKDISTYTTPTVSELLLNEGLYRETLSGK,not failed
20,MKKIGIIGAGGIARAHATALSTIKNAELVGVYDINQQNAESFVKTFGGKSFENVDELIDASEGLIVASPNFCHKEHALQALGKHKHVLCEKPMAISLEEASIMKDTAERLSVRASMGFNYRYLSYVNILKSLIINNELGNILSIKVHFKKNSALRRKKFTWRDDANSKKTSGSLGDLGIHLIDMVWYLFESDFITESVRAKMNTNVKTKEDKQVLVDDYAEIYGQLRNKVFVNIITSKCSVPEDCGFSIEVVGHKKEFKYHTGNPHVYKLIDGLNVVDCPVPQSLLNDPPNEFYGWADSFRSELINWIASTQNDWVEIPSFSDGFRSQEVLEMFFEKDSNSQPLEHHHHHH,not failed
